Residue numbers refer to the chain shown, from its start.
B1: 15-bp ETS consensus duplex (dsDNA)
DNA 1: CAAGCCGGAAGTGAG
DNA 2: CTCACTTCCGGCTTG
B2: 23-bp ETS consensus duplex (dsDNA)
DNA 1: CGGCCAAGCCGGAAGTGAGTGCC
DNA 2: GGCACTCACTTCCGGCTTGGCCG

Experiments:
ETV62C-red = target: T1, ETV62C-red (Mus musculus (murine), UniProt P97360 329-446, C334S;A393C;V437C); experiment: NMR
T1 sequence: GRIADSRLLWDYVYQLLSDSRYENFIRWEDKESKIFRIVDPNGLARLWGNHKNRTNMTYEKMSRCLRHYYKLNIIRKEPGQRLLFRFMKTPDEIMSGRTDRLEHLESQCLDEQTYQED

ETV6H432R = target: T2, ETV6H432R (Mus musculus (murine), UniProt P97360 329-446, C334S;H432R); experiment: EMSA
T2 sequence: T1 sequence with C65A, H104R, C109V

ETV6RAE = target: T3, ETV6RAE (Mus musculus (murine), UniProt P97360 329-446, C334S;H432R;S435A;Q436E); experiment: EMSA
T3 sequence: T1 sequence with C65A, H104R, S107A, Q108E, C109V

| Binder | binding result (ETV62C-red) | Kd (ETV6H432R) [nM] | Kd (ETV6RAE) [nM] |
| --- | --- | --- | --- |
| B1 | binds | – | – |
| B2 | – | 30 ± 10 | 90 ± 10 |

— publication PMC5575937
